Results as given in the DeepSol protein solubility set.

Assay: soluble on expression in E. coli; label from the status in PepcDB or PDB records

Row | Sequence | soluble on expression in E. coli
1 | MNNGEGEVMDLRDIDLNLLVVFNQLLLDRSVSTAGEKLGLTQPAVSNSLKRLRTALNDDLFLRTSKGMEPTPYALHLAEPVIYALNTLQTALTTRDSFDPFASTRTFNLAMTDIGEMYFMPPLMEALAQRAPHIQISTLRPNAGNLSEDMESGAVDLALGLLPELQTGFFQRRLFRHRYVCMFRKDHPSAKSPMSLKQFSELEHVGVVALNTGHGEVDGLLERAGIKRRMRLVVPHFIAIGPILHSTDLIATVPERFAVRCEVPFGLTTSPHPAKLPDIAINLFWHAKYNRDPGNMWLRQLFVELFSEAHHHHHH | soluble
2 | MTWEFENPLFVNSSGTAVGPKEKEGPLGHLFDKSYDEMHCNQKNWEMAERKLMEDAVQSALSKQNLKKEDIDIFLAGDLLNQNVTANYVARHLKIPFLCLFGACSTSMESIAISSALIDGGFAKRALAATSSHNATAERQFRYPTEYGGQKPGTATSTVTGSGAVVLSQQPGGIKITSATVGRVIDLGITDSQDMGSAMAPAAADTIKQHLEDLGRTPDDYDLILTGDLSGVGSPILKDLLKEEGINVGTKHNDCGLMIYTPDQQVFAGGSGCACSAVVTFAHIFKEIEAGRLNRVLVVATGALLSPTIIQQKESIPCIAHGVVFERAERGNALEHHHHHH | not soluble
3 | MYPLTLLRISRNRIVELELKNNDQLRGLLHKCDMAMNLHLKSVTIQKEDGSSIFINECYLKGTSIRLVKLESKILLEQREECVSNNKA | not soluble
4 | MSLKSKVLVIDDEPDIRELLTLTLSRMGLICDAVSDFKQGIEHIKQNYYSLVLTDMRLPDGDGIEIVKFIQKYKPQLPVAVITAYGNVEGAVNTLKAGAFDYVSKPVDLKMLRELVKTALSMQNPSTESPDEGLLVGESLIMQQLRESIHKLARSQAPVFIQGDSGVGKELVAQLIHANGPRKDKPFIPVNCGAIPGELMESEFFGHKKGSFTGAISDKTGLFVAAHGGTLFLDEIAELPLAMQVKLLRAIQEKAIKPIGELYEIPVDVRILSASHKNLIEEINAGRFRQDLYYRINVIELRVPTLMERLSDIPCLTEAILKKLSKNQNRNLVKINPSCFEILSRYHFPGNVRELENILERAMAMCEGEVIEPSEGHHHHHH | soluble
5 | MVCVSFPLFPEREADLCQRLVHLLDELRHHFVEIGHVLRIPLNDDVVNAFAFHARVVVCKEPCVFSGHPHAVLHLGHVRRLDGFETAKAEFHEVAGGERAFKLKAEPVTAQAVRGAGGAHALVTEQDRRLRDFHVSGELEEGAGVFFVLLAPGQRLGVNLWRYTGAYLGEQGVEVGHFHVCPFAARSRLGNDVVSVRGSNNSEP | not soluble
6 | MSHQCSLSELNENLVPFTARQIKSSLIWCAEDVRNPDELQNACSYIIDPGSTASAKVFHAERYGGSGIQRNGGGARCGFDGNYQVKGIGSNPLVGEGTDERHSNGALGAVHAIYEALWGEVLAQILPYSAVRVRAVLLTDLYTEKAFERSGRKSRRALLVREPVVRPAHFERAPYFQVKPEYSSLLIHDACRVRSVIHKLPGYLPVPPEEIDAEARTDPRIYCIEGLCELARREAWQMAFCRTRFLRLTTSPSNIAMDGRLMDFNGLSCLFPGDSPADFGYKLRLAELAKEPMVLMQGLSDLCLYIGKYMFDPDFTLAARLKVEEIFQKTFHEACYYCYLELLGIPGEFITQKEIPDILKELVNSFVALLNKYYEKSHAQDIVNQDGSPLQKLVVTLIHHRHNQKQALNSSIKNDVYFTVAQQCFSQAIHWLTQGSTRRQINASLLLKEIEHHTMKRLQPREELRKENMCEKIAILLDNHGDDPLFLQEAISDMKNFMLKFSRDAFGYLEPIRNTV | not soluble
7 | MGSDKIHHHHHHQIAPAPSTGYNCDLALYSVPQANLLARSLQGDTVADQQYRQLVRELAMELRNCRQQVWPRKMAIWVRLYSCDLRPGGLDSLFDGLQALGYNEVFIETFYDGRVLLPAADNPTVWPSVVAEPGLERVDLLAEAIRKGRERGMSVYAWLFTLNYGYSYSQRSDRQDTLARNGRSESSLEIVSGGAQVFVDPFNPVARQDYQTLLRSVLSRRPDGVLFDYVRYPRGTGAASVMTKVADLLIHTTAARQAWINQLNTPAGQALLTEYLDTGRLSPSDRNQLVLLLGDRLKELNLRQDVDPLWSLAVYHAWRGVVEFVDEAVGTVAQAGLPSGAVFFPFGNARVGQQGWDSRMQPWDRFPNSMEYHPMSYALCGDRHDCVMAEVQRVLEAKPNSIVQPAIAGTWGANFNAHLPLEQRMAALRSTFGDRIDRVSHFSLAWMDPQGERQRQRCRL | not soluble
8 | MAHHHHHHMVSANKSTMPLSQGCAAAAGIPLEYFETRDHINHLISLGMPRVTPHTVPPKERVATLPVPPQQDHTELMLTISSGGSPQKSYFSTTESHLLTCGTLTPKTARKRPEIDSFDMEGAFAALVKRLESRVDEEDNKDMAS | not soluble
9 | SLDKIEHIGIAVKNLEAGNSLYEKLMGVPHYKIEEVASEGVRTSFFKTGPNKIELLEATNDDSAIAKFIEKKGEGIHHIAFAVENIVEEMERLKKEGFIILNEKPKKGADNKLVAFVHPKTAGGVLIELCQEINEG | soluble
10 | MTEKHKTMGKFKVIVLAGTAGTGKSTIAGELIHEFKDIYPDLKFIEGDDLHPPANVEKMTRGIPLNDDDRWDWLKKVAVESTKAAASTKEHLSIVACSSLKKKYRDLIRHTCPESEFHFIFLYASKIEVLKRLKTRKGHFMKADMMESQFRDLELPDINDETDCDIVPLDFKTFYQIEKDVIQVVKSKVLNIE | not soluble
11 | SLHCIPLWRCNRHVESIDKRHCSLVYVPEEIYRYARSLEELLLDANQLRELPEQFFQLVKLRKLGLSDNEIQRLPPEIANFMQLVELDVSRNEIPEIPESISFCKALQVADFSGNPLTRLPESFPELQNLTCLSVNDISLQSLPENIGNLYNLASLELRENLLTYLPDSLTQLRRLEELDLGNNEIYNLPESIGALLHLKDLWLDGNQLSELPQEIGNLKNLLCLDVSENRLERLPEEISGLTSLTDLVISQNLLETIPDGIGKLKKLSILKVDQNRLTQLPEAVGECESLTELVLTENQLMTLPKSIGKLKKLSNLNADRNKLVSLPKEIGGCCSLTVFCVRDNRLTRIPAEVSQATELHVLDVAGNRLLHLPLSLTALKLKALWLSDNQSQPMLTFQTDTDYTTGEKILTCVLLPQLPSEPTCQENLPRCGALENLVNDVSDEAWNERAVNRVSAIRFVEDEKDEEDNETRTLLRRATPHPGELKHMKKTVENLRNDMNAAKGLDSNKNEVNHAIDRVTTS | not soluble
12 | MSLAKASAESLGGTVASEESIASYIGAGILSSGGNAVDAAVATSLALTVLIPHLGGVGGDFFMLYRSPEGRVFFVNGSGFAPRRLTREEVLGRGLQEIPESGPLSPTTPGYLAGLYHSWRSFGTMEWASLVKPARLLASRGFPLPPSTARSLKLRRECLEADPGSREAVLKTLPREEGSPARLPGLAALLSGVEEDPLYLYQGEPAEALEEYLASIGGVMGAEDLAGTRGFTAEPLYSEYRGWKVWEMPPNTQGVTTLHLLMLLEEEELPEPFSPERVDILAGLARMAYSIRDRYVGDPRYMPIDPHELARKETLLKLLGQEESNGSKATGDTTFFAVADREGGIVAGIQSLFYPWGSCVTEPRFQVTLNNRARGFTLKEGLPSTLRPGAFPLHTLSSVIMEQRERVIALGASGGHLRPQQHALFVTNIVDYGMNVLDAINAPRAVWDPGRGEILCEEGFGCRPSWRKVERIGVANAVEVAGSVKRGYTDMRGDGLPAVEGHHHHHH | not soluble
13 | MGSDKIHHHHHHASKIKQVGSTNLEPTTAYIRNYKATGSNAIYNKPGKLSGSKVVASASTAKAQSVLHGYKVAKLSNKSYYMKVVSFDGRYRGYIYVGKKNPVNNFKKVGGGLTYLSTTTSTSLTNNDKKDLSFAKPGTDTQIYKAPKGSQYKVGAAVKDTTDYKGHKLVASKAAMNDMDGQKWLYVSDVTEPTNASGWVLASQLTDYVAPKAPVSVGNDQTTVTKNWQREFYNPATGTKAYSFDNLNLPLLGTSGGSNVNWTTAVKKFNSDATVKGDKKDVVPADTLATAFKNSGLSTVYMKVTPTLLARIPGGLLDKIDSYSGLYMKFDLDMDNIPTTTHYGDQLKLAYKLDNTNLYYKPVISLGGLTNTNADGYAALPVQLNAMNTLWGLLYQ | not soluble
